Results taken from PMC4230619 (Molecular Biology of the Cell, 2014).

Molecular target: the molecule itself
Test: single-molecule TIRF step-intensity counting in live cells

B1: dynamin2-EGFP (natural protein, human (endogenous in SUM159), UniProt P50570 1-870, looked up)
chain: MGNRGMEELIPLVNKLQDAFSSIGQSCHLDLPQIAVVGGQSAGKSSVLENFVGRDFLPRGSGIVTRRPLILQLIFSKTEHAEFLHCKSKKFTDFDEVRQEIEAETDRVTGTNKGISPVPINLRVYSPHVLNLTLIDLPGITKVPVGDQPPDIEYQIKDMILQFISRESSLILAVTPANMDLANSDALKLAKEVDPQGLRTIGVITKLDLMDEGTDARDVLENKLLPLRRGYIGVVNRSQKDIEGKKDIRAALAAERKFFLSHPAYRHMADRMGTPHLQKTLNQQLTNHIRESLPALRSKLQSQLLSLEKEVEEYKNFRPDDPTRKTKALLQMVQQFGVDFEKRIEGSGDQVDTLELSGGARINRIFHERFPFELVKMEFDEKDLRREISYAIKNIHGVRTGLFTPDLAFEAIVKKQVVKLKEPCLKCVDLVIQELINTVRQCTSKLSSYPRLREETERIVTTYIREREGRTKDQILLLIDIEQSYINTNHEDFIGFANAQQRSTQLNKKRAIPNQGEILVIRRGWLTINNISLMKGGSKEYWFVLTAESLSWYKDEEEKEKKYMLPLDNLKIRDVEKGFMSNKHVFAIFNTEQRNVYKDLRQIELACDSQEDVDSWKASFLRAGVYPEKDQAENEDGAQENTFSMDPQLERQVETIRNLVDSYVAIINKSIRDLMPKTIMHLMINNTKAFIHHELLAYLYSSADQSSLMEESADQAQRRDDMLRMYHALKEALNIIGDISTSTVSTPVPPPVDDTWLQSASSHSPTPQRRPVSSIHPPGRPPAVRGPTPGPPLIPVPVGAAASFSAPPIPSRPGPQSVFANSDLFPAPPQIPSRPVRIPPGIPPGVPSRRPPAAPSRPTIIRPAEPSLLD
- stoichiometry N: 2
